# According to publication PMC7458484 (ACS Nano, 2020):
# B1: full-length hepatitis B virus core protein Cp185 (natural protein)
# chain: MDIDPYKEFGATVELLSFLPSDFFPSVRDLLDTASALYREALESPEHCSPHHTALRQAILCWGELMTLATWVGNNLEDPASRDLVVNYVNTNMGLKIRQLLWFHISCLTFGRETVLEYLVSFGVWIRTPPAYRPPNAPILSTLPETTVVRRRDRGRSPRRRTPSPRRRRSQSPRRRRSQSRESQC
# Biological target: the molecule itself
# Assay: SAXS; steady state, flow cell; 1.14 mg/mL disassembled Cp185 in disassembly buffer (1.5 M GuHCl, 0.5 M LiCl, 50 mM HEPES pH 7.5, 2 mM DTT); monomer to dimer
protein,measurement,value
B1,stoichiometry N,2
